Data on four molecules can be found in article PMC2778355 (Biochemistry, 2009).

As usually defined, the stoichiometry N is a count of units in the complex or per binding partner. What is called Kd is the free concentration of one partner at which half of the binding sites on the other are occupied at equilibrium, for simple one-to-one binding.

For series [1], the target named is His-ZapA (E. coli) (UniProt P0ADS2). Briefly: AUC.
For series [2] the target is unchanged. Briefly: composition-gradient static light scattering.
The next series concerns the target ZapA (Escherichia coli) (UniProt P0ADS2). To be noted: cited from earlier work.
Series [3] concerns the target Escherichia coli FtsZ (E. coli) (UniProt P0A9A6). Briefly: co-sedimentation.
Series [4] deals with the molecule itself. Kind of series: negative-stain electron microscopy.

Consider “His-ZapA (from UniProt P0ADS2 1-109) (natural protein)”, for which the stoichiometry N in the series with His-ZapA (E. coli) [1] and with His-ZapA (E. coli) [2] was 4 throughout.
On to ZapA (from UniProt P0ADS2), for which, in the series with ZapA (Escherichia coli), the Kd is 320 nM.
In series [3], “ZapA (His tag removed by enterokinase digestion of His-ZapA) (from UniProt P0ADS2 1-109) (natural protein)” showed a stoichiometry N of 1.

B1: Escherichia coli FtsZ (natural protein)
chain: MFEPMELTNDAVIKVIGVGGGGGNAVEHMVRERIEGVEFFAVNTDAQALRKTAVGQTIQIGSGITKGLGAGANPEVGRNAADEDRDALRAALEGADMVFIAAGMGGGTGTGAAPVVAEVAKDLGILTVAVVTKPFNFEGKKRMAFAEQGITELSKHVDSLITIPNDKLLKVLGRGISLLDAFGAANDVLKGAVQGIAELITRPGLMNVDFADVRTVMSEMGYAMMGSGVASGEDRAEEAAEMAISSPLLEDIDLSGARGVLVNITAGFDLRLDEFETVGNTIRAFASDNATVVIGTSLDPDMNDELRVTVVATGIGMDKRPEITLVTNKQVQQPVMDRYQQHGMAPLTQEQKPVAKVVNDNAPQTAKEPDYLDIPAFLRKQAD
B1: the binding result in series [4] was “binds”.
